# Reference: patent US9205132B2, “Method of lowering mortality” (CORTHERA, INC., priority 2008, dated 2015)
# Marks after values point to notes of the source that are not given here.
# Tested on: patients with acute heart failure (AHF)
# Test: Safety endpoints (adverse events, blood pressure, renal impairment, clinical laboratory), Pre-RELAX-AHF trial
# Assay type: in vivo, human
# Conditions: for change from baseline in mean hematocrit at 48 hours: described as transient decrease; for Total number of SAEs: to Day 30
# Description: Study Procedures. The study was approved by the relevant ethics committees, institutional review hoards and regulatory authorities, and conducted under the International Conference on Harmonization Good Clinical Practice guidelines. All patients provided informed written consent prior to participation. […] The placebo used for the study was the same solution as the diluent used to prepare the 100 μg/kg/day dose. The randomization ratio was 3:2:2:2:2, respectively, Relaxin (Corthera, San Mateo, Calif.) was manufactured using recombinant techniques and was identical to the naturally-occurring peptide hormone. By protocol, the study drug infusion was to be terminated if the patient's SBP was reduced to <100 mmHg or by >40 mmHg compared to baseline in two successive measurements, 15 minutes apart. Investigators were not prohibited from utilizing any standard medication, thought necessary to treat patients enrolled in the study, including additional vasodilators, following a 4-hour washout period during which time IV vasodilators, IV pure inotropes and meals were withheld, hemodynamic, renal, and clinical responses to 48 hours of study drug infusion were assessed.
# Study Endpoints. […] 4.) Length of initial hospital stay.
substance,measurement,setting,value
Relaxin,Renal impairment: Patients with ≧0.3 mg/dL increase in creatinine at Day 5 and Day 14,100 mcg/kg/d IV 48 h,4 (10.8%) n (%)
same,Renal impairment: Patients with ≧25% increase in creatinine at Day 5,100 mcg/kg/d IV 48 h,11 (29.7%) * n (%)
same,"SAE to Day 30: Acute respiratory failure, n (%)",100 mcg/kg/d IV 48 h,1 (2.6%) n (%)
same,"SAE to Day 30: Bronchitis, n (%)",100 mcg/kg/d IV 48 h,0 n (%)
same,"SAE to Day 30: Cardiac failure, n (%)",100 mcg/kg/d IV 48 h,0 n (%)
same,"SAE to Day 30: Cerebrovascular accident, n (%)",100 mcg/kg/d IV 48 h,0 n (%)
same,"SAE to Day 30: Hypotension, n (%)",100 mcg/kg/d IV 48 h,0 n (%)
same,"SAE to Day 30: Noncardiac chest pain, n (%)",100 mcg/kg/d IV 48 h,0 n (%)
same,"SAE to Day 30: Pneumonia, n (%)",100 mcg/kg/d IV 48 h,0 n (%)
same,"SAE to Day 30: Renal failure, n (%)",100 mcg/kg/d IV 48 h,0 n (%)
same,"SAE to Day 30: Urinary retention, n (%)",100 mcg/kg/d IV 48 h,2 (5.3%) n (%)
same,"SAE to Day 30: Urinary tract infection, n (%)",100 mcg/kg/d IV 48 h,0 n (%)
same,"SAE to Day 30: Ventricular fibrillation, n (%)",100 mcg/kg/d IV 48 h,0 n (%)
same,mean change in creatinine from baseline at Day 14,100 mcg/kg/d IV 48 h,0.08 ± 0.39 mg/dL
same,mean decrease in SBP compared to placebo during infusion,100 mcg/kg/d IV 48 h,3-4 mmHg
same,proportion of patients at Day 14 with an increase in creatinine of 0.3 mg/dL or more,100 mcg/kg/d IV 48 h,24.2%
same,change from baseline in mean hematocrit at 48 hours,100 mcg/kg/d IV 48 h,0.25%
same,"Patients with any AE from Day 15 to Day 30, n (%)",250 mcg/kg/d IV 48 h,3 (6.1%) n (%)
same,"Patients with any SAEs to Day 30, n (%)",250 mcg/kg/d IV 48 h,8 (16.3%) n (%)
same,"Patients with any adverse events to Day 30, n (%)",250 mcg/kg/d IV 48 h,25 (51.0%) n (%)
same,Protocol-specified study drug discontinuation due to blood pressure reduction,250 mcg/kg/d IV 48 h,16.3%
same,Renal impairment: Patients with ≧0.3 mg/dL increase in creatinine at Day 5,250 mcg/kg/d IV 48 h,10 (22.7%) n (%)
same,Renal impairment: Patients with ≧0.3 mg/dL increase in creatinine at Day 5 and Day 14,250 mcg/kg/d IV 48 h,7 (15.2%) + n (%)
same,Renal impairment: Patients with ≧25% increase in creatinine at Day 5,250 mcg/kg/d IV 48 h,12 (25.5%) n (%)
same,"SAE to Day 30: Acute respiratory failure, n (%)",250 mcg/kg/d IV 48 h,0 n (%)
same,"SAE to Day 30: Bronchitis, n (%)",250 mcg/kg/d IV 48 h,1 (2.0%) n (%)
same,"SAE to Day 30: Cardiac failure, n (%)",250 mcg/kg/d IV 48 h,2 (6.1%) n (%)
same,"SAE to Day 30: Cerebrovascular accident, n (%)",250 mcg/kg/d IV 48 h,0 n (%)
same,"SAE to Day 30: Hypotension, n (%)",250 mcg/kg/d IV 48 h,2 (4.1%) n (%)
same,"SAE to Day 30: Noncardiac chest pain, n (%)",250 mcg/kg/d IV 48 h,1 (2.0%) n (%)
same,"SAE to Day 30: Pneumonia, n (%)",250 mcg/kg/d IV 48 h,0 n (%)
same,"SAE to Day 30: Renal failure, n (%)",250 mcg/kg/d IV 48 h,0 n (%)
same,"SAE to Day 30: Urinary retention, n (%)",250 mcg/kg/d IV 48 h,0 n (%)
same,"SAE to Day 30: Urinary tract infection, n (%)",250 mcg/kg/d IV 48 h,1 (2.0%) n (%)
same,"SAE to Day 30: Ventricular fibrillation, n (%)",250 mcg/kg/d IV 48 h,0 n (%)
same,mean change in creatinine from baseline at Day 14,250 mcg/kg/d IV 48 h,0.10 ± 0.39 mg/dL
same,proportion of patients at Day 14 with an increase in creatinine of 0.3 mg/dL or more,250 mcg/kg/d IV 48 h,37.2%
same,change from baseline in mean hematocrit at 48 hours,250 mcg/kg/d IV 48 h,0.64%
same,renal toxicity,AHF and/or acute vascular failure patients,low to no renal toxicity
same,safety and tolerability,"AHF patients, all doses",no safety or tolerability issues
same,hypotension in patients with baseline SBP below the median,FIGS. 22A and 22B,does not cause deleterious hypotension
same,trough SBP,all cases with blood pressure reduction,≥ 80 mmHg
same,mean change in pulse from baseline through day 14,"all relaxin groups vs placebo, FIG. 20",not chronotropic
same,average decrease in systolic blood pressure over all time points during infusion vs placebo,"all relaxin groups, FIG. 21",did not differ
same,patients who received intravenous fluids for hypotension,four relaxin-treated groups together (5 patients),3.0%
same,patients with SBP reductions in whom SBP stabilized or rose with no therapy after discontinuation of study drug,"relaxin-treated patients, all doses",18 of 23
same,Total number of SAEs,10 mcg/kg/d IV 48 h,8
same,Total number of SAEs,30 mcg/kg/d IV 48 h,12
same,Total number of SAEs,100 mcg/kg/d IV 48 h,3
same,Total number of SAEs,250 mcg/kg/d IV 48 h,11
